Data reported in patent US20090191117A1.

What was measured:
[1] = molecular target: αvβ3 and αvβ5 integrins on A375S2 human melanoma cells (human) (UniProt P06756); assay: cell-based or functional assay
[2] = molecular target: αVβ3 and αVβ5 integrins on M21 human melanoma cells (human) (UniProt P06756); assay: 125-I antibody saturation binding to M21 cells, n = 8
[3] = molecular target: αvβ3 and αvβ5 integrins on A375S2 human melanoma cells (human) (UniProt P06756); assay: 125-I antibody saturation binding to A375S2 cells, n = 7
[4] = molecular target: αvβ3 and αvβ5 integrins on A375S2 human melanoma cells (human) (UniProt P06756); assay: radiolabelled antibody binding to A375S2 cells, n = 2
[5] = molecular target: αVβ3 and αVβ5 integrins on M21 human melanoma cells (human) (UniProt P06756); assay: radiolabelled antibody binding to M21 cells, n = 2
[6] = molecular target: αvβ5 integrin on HT-29 human colon carcinoma cells (human) (UniProt P06756); assay: radiolabelled antibody binding to HT-29 cells, n = 1
[7] = molecular target: αvβ3 and αvβ5 integrins on A375S2 human melanoma cells (human) (UniProt P06756); assay: radiolabelled antibody binding to A375S2 cells, n = 4
[8] = molecular target: αVβ3 and αVβ5 integrins on M21 human melanoma cells (human) (UniProt P06756); assay: 125-I Fab saturation binding to M21 cells, n = 7
[9] = molecular target: αvβ3 and αvβ5 integrins on A375S2 human melanoma cells (human) (UniProt P06756); assay: 125-I Fab saturation binding to A375S2 cells, n = 6

Sequence of αvβ3 and αvβ5 integrins on A375S2 human melanoma cells (human) (P06756 31-1048 A375S, chain 1 of 3): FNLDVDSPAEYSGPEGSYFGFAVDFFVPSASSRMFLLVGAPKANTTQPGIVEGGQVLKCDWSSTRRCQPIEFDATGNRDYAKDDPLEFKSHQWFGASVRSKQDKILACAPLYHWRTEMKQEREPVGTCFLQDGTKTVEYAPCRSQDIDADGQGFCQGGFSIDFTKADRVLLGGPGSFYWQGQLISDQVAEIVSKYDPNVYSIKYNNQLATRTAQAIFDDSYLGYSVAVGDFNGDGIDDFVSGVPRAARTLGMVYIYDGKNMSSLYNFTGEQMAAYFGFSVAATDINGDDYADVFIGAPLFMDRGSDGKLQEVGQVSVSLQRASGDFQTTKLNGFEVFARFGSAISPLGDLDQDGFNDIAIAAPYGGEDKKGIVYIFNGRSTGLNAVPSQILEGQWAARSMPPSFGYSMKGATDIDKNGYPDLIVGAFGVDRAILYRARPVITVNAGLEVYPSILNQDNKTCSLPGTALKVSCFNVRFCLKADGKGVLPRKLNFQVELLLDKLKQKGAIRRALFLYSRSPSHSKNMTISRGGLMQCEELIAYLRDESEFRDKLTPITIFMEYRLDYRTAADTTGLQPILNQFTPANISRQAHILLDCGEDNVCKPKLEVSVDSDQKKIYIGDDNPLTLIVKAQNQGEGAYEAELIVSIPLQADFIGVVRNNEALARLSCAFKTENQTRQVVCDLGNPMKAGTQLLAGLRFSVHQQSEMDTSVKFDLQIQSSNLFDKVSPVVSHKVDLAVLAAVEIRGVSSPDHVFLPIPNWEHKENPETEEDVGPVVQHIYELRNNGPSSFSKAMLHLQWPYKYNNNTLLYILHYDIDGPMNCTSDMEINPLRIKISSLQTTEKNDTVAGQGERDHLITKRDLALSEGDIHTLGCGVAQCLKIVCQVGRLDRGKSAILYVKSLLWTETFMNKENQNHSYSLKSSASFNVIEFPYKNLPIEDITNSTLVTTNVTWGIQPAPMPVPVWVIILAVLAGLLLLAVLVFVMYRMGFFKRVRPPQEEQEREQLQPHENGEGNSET
Sequence of αvβ3 and αvβ5 integrins on A375S2 human melanoma cells (human) (P05106 27-788, chain 2 of 3, further chain): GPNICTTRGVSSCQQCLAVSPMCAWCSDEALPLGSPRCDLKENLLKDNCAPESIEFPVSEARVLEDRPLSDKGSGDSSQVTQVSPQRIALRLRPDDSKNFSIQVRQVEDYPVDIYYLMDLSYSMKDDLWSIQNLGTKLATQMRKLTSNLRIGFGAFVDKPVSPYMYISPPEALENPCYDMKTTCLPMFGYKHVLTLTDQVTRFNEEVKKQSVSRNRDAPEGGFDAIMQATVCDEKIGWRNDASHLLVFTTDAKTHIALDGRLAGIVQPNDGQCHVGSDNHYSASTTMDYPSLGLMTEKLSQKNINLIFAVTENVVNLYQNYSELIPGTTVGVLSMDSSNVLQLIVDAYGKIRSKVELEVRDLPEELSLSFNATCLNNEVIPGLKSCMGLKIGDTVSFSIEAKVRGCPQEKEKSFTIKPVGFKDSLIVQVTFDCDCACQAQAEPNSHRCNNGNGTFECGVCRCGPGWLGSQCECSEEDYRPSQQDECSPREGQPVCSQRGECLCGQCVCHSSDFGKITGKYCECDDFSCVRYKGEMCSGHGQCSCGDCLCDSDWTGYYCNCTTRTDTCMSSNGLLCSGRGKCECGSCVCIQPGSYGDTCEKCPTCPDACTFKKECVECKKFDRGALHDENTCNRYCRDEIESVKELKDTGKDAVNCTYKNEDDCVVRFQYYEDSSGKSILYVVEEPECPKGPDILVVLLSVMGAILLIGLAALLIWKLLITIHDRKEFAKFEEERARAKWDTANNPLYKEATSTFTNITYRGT
Sequence of αvβ3 and αvβ5 integrins on A375S2 human melanoma cells (human) (P18084 24-799, chain 3 of 3, further chain): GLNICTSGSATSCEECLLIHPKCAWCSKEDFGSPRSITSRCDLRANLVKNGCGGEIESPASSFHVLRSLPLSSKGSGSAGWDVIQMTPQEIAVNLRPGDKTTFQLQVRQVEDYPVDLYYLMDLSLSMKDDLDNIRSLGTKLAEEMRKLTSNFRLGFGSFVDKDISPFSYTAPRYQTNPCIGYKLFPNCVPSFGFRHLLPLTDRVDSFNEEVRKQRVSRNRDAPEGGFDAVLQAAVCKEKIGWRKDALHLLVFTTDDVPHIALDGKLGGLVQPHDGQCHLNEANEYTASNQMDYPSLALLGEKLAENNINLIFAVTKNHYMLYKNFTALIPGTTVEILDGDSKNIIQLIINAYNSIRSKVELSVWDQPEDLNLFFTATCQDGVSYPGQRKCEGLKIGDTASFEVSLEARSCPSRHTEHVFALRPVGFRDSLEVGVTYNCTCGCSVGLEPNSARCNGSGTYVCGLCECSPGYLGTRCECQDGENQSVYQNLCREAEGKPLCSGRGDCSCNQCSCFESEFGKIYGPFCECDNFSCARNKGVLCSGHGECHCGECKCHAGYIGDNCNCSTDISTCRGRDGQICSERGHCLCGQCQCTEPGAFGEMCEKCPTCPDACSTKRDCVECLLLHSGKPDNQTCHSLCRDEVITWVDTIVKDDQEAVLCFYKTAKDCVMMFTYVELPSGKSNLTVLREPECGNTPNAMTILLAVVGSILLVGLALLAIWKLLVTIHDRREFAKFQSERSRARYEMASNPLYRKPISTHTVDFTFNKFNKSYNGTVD
Sequence of αvβ5 integrin on HT-29 human colon carcinoma cells (human) (P06756 31-1048, chain 1 of 2): as the sequence (P06756 31-1048 A375S, chain 1 of 3) above, with S345A counted along it
Sequence of αvβ5 integrin on HT-29 human colon carcinoma cells (human) (P18084 24-799, chain 2 of 2, further chain): as the sequence (P18084 24-799, chain 3 of 3, further chain) above

## CNTO 95 (antibody)
[1]
  A375S.2 cell adhesion to fibrin, percent of adhesion without antibody, antibody at 10 µg/ml: 43.3%
  A375S.2 cell adhesion to fibrinogen, percent of adhesion without antibody, antibody at 10 µg/ml: 11.4%
  A375S.2 cell adhesion to gelatin, percent of adhesion without antibody, antibody at 10 µg/ml: 23.2%
  A375S.2 cell adhesion to vitronectin, percent of adhesion without antibody, antibody at 10 µg/ml: 1.4%
[2]
  Receptors per cell (receptors per cell): 200000
[3]
  Receptors per cell (receptors per cell): 120000

## LM609 (antibody)
[4]
  Receptors per cell (receptors per cell): 300000

## P1F6 (antibody)
[5]
  Receptors per cell (receptors per cell): 44000
[6]
  Receptors per cell (receptors per cell): 73000
[7]
  Receptors per cell (receptors per cell): 70000

## ReoPro (c7E3 Fab)
[8]
  Receptors per cell (receptors per cell): 660000
[9]
  Receptors per cell (receptors per cell): 370000
